These results are taken from patent US20080233097A1, “Phosphorylation Site Of Mitogen-Activated Protein Kinases, Modified Proteins And Applications” (UNIVERSIDAD AUTONOMA DE MADRID, priority 2005, published 2008).

The target of series [1] is T1, GRK2 (Bos taurus, UniProt P21146).
T1 construct: made in house; host or cells: Sf9 cells (baculovirus)
T1 sequence (P21146 1-689): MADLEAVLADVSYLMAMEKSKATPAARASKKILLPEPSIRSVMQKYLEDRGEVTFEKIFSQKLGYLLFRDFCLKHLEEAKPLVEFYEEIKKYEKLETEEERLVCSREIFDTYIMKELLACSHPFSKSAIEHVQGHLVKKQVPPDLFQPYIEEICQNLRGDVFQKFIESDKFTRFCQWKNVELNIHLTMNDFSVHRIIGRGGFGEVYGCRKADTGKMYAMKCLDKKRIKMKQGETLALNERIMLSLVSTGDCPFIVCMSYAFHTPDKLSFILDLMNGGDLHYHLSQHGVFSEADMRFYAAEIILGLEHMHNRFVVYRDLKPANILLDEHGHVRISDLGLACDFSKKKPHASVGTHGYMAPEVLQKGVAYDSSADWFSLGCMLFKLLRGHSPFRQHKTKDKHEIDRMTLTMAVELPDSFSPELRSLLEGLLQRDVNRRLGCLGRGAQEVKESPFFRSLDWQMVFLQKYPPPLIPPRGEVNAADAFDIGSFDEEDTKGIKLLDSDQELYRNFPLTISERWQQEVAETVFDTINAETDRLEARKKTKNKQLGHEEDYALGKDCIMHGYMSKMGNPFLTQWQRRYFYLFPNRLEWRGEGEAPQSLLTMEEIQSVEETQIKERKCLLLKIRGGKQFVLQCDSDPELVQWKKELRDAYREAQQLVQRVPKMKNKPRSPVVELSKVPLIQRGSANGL
Description: GRK2 kinase activity in vitro (casein substrate). The series is classed as biochemical. To be noted: 0.5 μM.

Series [2] deals with 3T3-L1 cells. Put plainly: adipocyte differentiation of 3T3-L1 (Oil Red staining, adipocyte count). In kind it is cell-based. The source says:
3T3L1 lines stably transfected with pCDNA3-GRK2 and pCDNA3-GRK2K220R were made. GRK2 (anti-GRK2) expression controls obtained in cell lines, compared to 3T3L1 levels, are included. The cells were subjected to a standard differentiation treatment and on day 15 of the latter, the cells were fixed with formalin and stained with Oil Red, a lipophilic coloring which binds to the fats accumulated by the adipocytes. The cells with adipocytic phenotype (in red) were counted under microscope in a total of 25 fields. Representative photographs of two independent experiments are shown in duplicate. A photo of the 3T3L1 cells, free of stimulation with insulin during the differentiation process (control), is also included. The graph reflects the adipocyte count (±SEM) in these experiments.
The cell culture was carried out with 10% DMEM medium of NCS serum. However, the entire differentiation process which is described below must be performed in depleted AXC serum (ion exchange resin) by means of successive adsorptions of fetal calf serum on an anion exchange resin and on active carbon. AXC serum was provided by the kitchen service of the Instituto of Investigaciones Biomédicas (Biomedical Research Institute). The cells are grown until their confluence and are plated (5×10^5 in P-100) in DMEM-10% AXC medium, supplemented with 4 μM of biotin (Sigma). The following day, the medium is replaced with fresh medium. The cells are grown another three days, until confluence is reached again, that day is called day “0”. On day 0 of differentiation, the cells are cultured in a medium containing: 0.5 μM dexamethasone (Sigma), 0.5 mM 3-isobutyl-1-methylxanthine (IMBX, of Sigma) and 1 μM insulin (Sigma) and in which they will remain for another three days. […] From day 6 to day 15, the adipogenesis was analyzed by staining with Oil Red, a red coloring of lipophilic constitution which binds to the drops of fat accumulated by the adipocytes in their cytoplasm. […] The cells are counted in a total of 25 fields per each experimental plate.

Series [3] relates to 3T3-L1 cells. To be noted: prior demonstration of p38 involvement; cited from earlier work.
Series [4] relates to β-tubulins. The settings on record: depending on the subtypes; cited from earlier work.
Series [5] concerns the target T2, p38 (GST-p38) (Mus musculus, UniProt P47811).
T2 construct: with whole p38α in the same conditions as described in section A; made in house; host or cells: E. coli (GST-p38); Sf9 cells with baculovirus (GRK2)
Description: p38 phosphorylation by GRK2 in vitro (kinetic characterization). The series is classed as biochemical. The protocol:
Normally, the phosphorylation reactions are left to take place for 30 minutes at 30° C. In the case of two-dimensional electrophoresis or of the samples intended for proteomic sequencing, the reaction extends to 1 or 2 hours.
The Michaelis-Menten behaviour of the kinases was assumed for calculating the kinetic constants of the enzymatic reactions. The graphs were made with the “Kaleidagraph” program, provided with an algorithm capable of deducing the kinetic parameters: Michaelis-Menten constant (Km) and maximum speed (Smax=So (nmol of PO4^3-incorporated. mg of enzyme^−1minute^−1)

The test system of series [6] is phosducin and the protein similar to phosducin (PhD and PhLP). The settings on record: cited from earlier work.
Series [7] concerns Flag-p38. Put plainly: GRK2 overexpression: p38 activation by MKK6CAM in HEK 293 cells. The settings on record: increasing doses of pCDNA3-GRK2 (0 to 1 μg). In kind it is cell-based, human. As to the method:
FIG. 3A: HEK 293 cells, normally seeded in multiwell plates with 6 or 12 wells (M6 or M12), were transiently transfected with pCDNA3-Flag-p38α, pCDNA3-MKK6CAM, and with increasing amounts of the pCDNA3-GRK2 vector. In this experiment, M6 plates were used and the DNA amounts introduced were: 100 ng of Flag-p38, 100 ng of MKK6CAM, and 0 to 1 μg of GRK2. In all points, the total amount of DNA was completed with pCEFL-EGFP and with empty pCDNA3 instead of pCDNA3-MKK6CAM, in the case of the control (CTRL). After 48 hours, the cells were harvested by lysing them in M2 buffer. […] The p38 activation state was evaluated with anti-phospho-p38, of Cell Signaling, and after giving off the antibodies of the first immunodetection, it was detected with total anti-p38, of the same company. […] The Flag-p38 activation state was determined in the same way as in A. Furthermore, the correct MKK6CAM expression was assured with the anti-MKK6/SKK3 antibody of Upstate Biotechnology. […]
The HE 293 cells, generally subjected to starvation (medium without serum) of a variable duration: 2 hours in the case of p38 and all night in the case of ERK, were stimulated and, after processing the lysate cells, the immunodetection of the phosphoproteins was carried out with the phospho-specific antibodies of the activation segments of both proteins. […] The quantification of the bands was carried out in a laser densitometer. […]

Series [8] has as its target T3, Flag-p38α (Mus musculus, UniProt P47811).
T3 construct: expressed in transfected cells; host or cells: HEK 293 cells, co-transfected with pCDNA3-MKK6CAM and with or without pCDNA3-GRK2
Put plainly: […] peptide phosphorylation by immunoprecipitated Flag-p38. In kind it is biochemical. To be noted: HEK 293 cells transfected with Flag-p38α, MKK6CAM and 1 or 2 μg pCDNA3-GRK2.
Description: FIG. 4A: HEK 293 cells, seeded in p60, were transiently transfected with 0.5 μg of pCDNA3-Flag-p38α, 0.5 μg of pCDNA3-MKK6CAM(or 0.5 μg of empty pCDNA3 in the control, CTRL), and with 1 or 2 μg of the pCDNA3-GRK2 (+) vector, carrying out each point in duplicate. The controls were carried out in a parallel way, substituting the pCDNA3-GRK2 μg with pCEFL-EGFP (−). The total DNA amount was completed with empty pCDNA3. After 48 hours, the cells were lysed, lysate aliquots were taken and Flag-p38 was immunoprecipitated from them. […] FIG. 4B: The immunoprecipitates were washed three times with 15 ml of M2 buffer and two times with 15 ml of phosphorylation buffer without ATP (15 mM NaF, 25 mM Hepes pH 7.5 and 10 mM magnesium acetate). In the last washing step, the agarose-immune complexes were resuspended in 1 ml of buffer and 10% of each point was separated to control the immunoprecipitation of Flag-p38 (panel inserted in the graph of section B). Kinase-assays were carried out with immunoprecipitated Flag-p38, using [sequence] peptide (initially provided by CalbioChem and subsequently synthesized by the Servicio de Química de Proteínas (Protein Chemistry Service) of the CBMSO) as a substrate. […] ATP and 2 mM of the peptide substrate. […] They were left to dry, were abundantly washed with 75 mM phosphoric acid and the radioactivity incorporated by the adsorbed peptide was quantified by Cerenkov. […]

Series [9] deals with sinucleins. To be noted: depending on the subtypes; cited from earlier work.

“And” between values parts separate entries of the source, which are not always exact repeats. Identical values can stand only once.

T2 sequence (P47811 whole entry): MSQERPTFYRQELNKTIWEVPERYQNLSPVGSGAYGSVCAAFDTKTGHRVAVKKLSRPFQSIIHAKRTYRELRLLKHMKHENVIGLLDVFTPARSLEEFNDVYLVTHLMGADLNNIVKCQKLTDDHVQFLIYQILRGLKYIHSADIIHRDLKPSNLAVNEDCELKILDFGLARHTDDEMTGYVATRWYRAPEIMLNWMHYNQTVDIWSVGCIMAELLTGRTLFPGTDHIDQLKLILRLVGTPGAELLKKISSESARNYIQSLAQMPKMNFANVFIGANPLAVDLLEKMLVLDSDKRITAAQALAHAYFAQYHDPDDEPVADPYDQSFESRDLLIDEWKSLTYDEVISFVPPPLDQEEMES
T3 sequence (P47811 whole entry): as above

On to `C[S+]([O-])c1ccc(-c2nc(-c3ccncc3)c(-c3ccc(F)cc3)[nH]2)cc1` (stereo not shown) [SB203580], for which the “effect on kinase activity of GRK2” value in [1] is reported as “does not affect the kinase activity of GRK2”. The effect on adipogenesis entry in series [2] (10 μM, insulin-induced differentiation) is “reverses the entire adipogenesis”. The “effect on differentiation into adipocytes” value in series [3] is “blocked”.

For “GRK2: G protein-coupled receptor kinase 2; recombinant, purified by the Baculovirus system; phosphorylates Thr123 of p38”, the Km in series [4] was 1 to 2 µM; in series [5] (GRK2 25 nM, p38 12.5 to 400 nM, 15 minutes, 30° C., read-out: Michaelis-Menten constant (Km)), 0.0796 µM and 0.08 µM; in series [6], 0.04 to 0.1 µM; in [9], 1 to 2 µM. Besides, the “maximum speed (Smax)” value in series [5] (GRK2 25 nM, p38 12.5 to 400 nM, 15 minutes) is reported as 0.9 nmol of PO4^3-incorporated per mg GRK2^−1 minute^−1. Further, in [5] (at least three quantifications by Cerenkov), the stoichiometry of phosphorylation is recorded as 0.4-0.8 mol Pi/mol p38. Moreover, the “average time for reaching 50% of the maximum phosphorylation” value in [5] (time course 0 to 90 minutes) was found to be 15 min. In addition, in series [7], the “p38 activation dependent on MKK6CAM” value is “decreased more as more amounts of GRK2 were expressed”. For the same compound, in [8], the “catalytic activity of immunoprecipitated p38 on APR peptide” value was “dimmed”. Further, in series [2] (3T3L1 lines stably transfected, day 15), the “acquisition of the adipocytic morphology mediated by insulin” value is “inhibits the acquisition of the adipocytic morphology mediated by insulin”.

What is called Km is the concentration of substrate that gives half-maximal velocity.
